{"source": "paper doi:10.1101/2020.03.04.976142", "test_in_all_cases": "ITC", "key": {"[1]": {"target": "AnkG exZZUD (rat) (UniProt O70511)", "sequence (O70511 whole entry)": "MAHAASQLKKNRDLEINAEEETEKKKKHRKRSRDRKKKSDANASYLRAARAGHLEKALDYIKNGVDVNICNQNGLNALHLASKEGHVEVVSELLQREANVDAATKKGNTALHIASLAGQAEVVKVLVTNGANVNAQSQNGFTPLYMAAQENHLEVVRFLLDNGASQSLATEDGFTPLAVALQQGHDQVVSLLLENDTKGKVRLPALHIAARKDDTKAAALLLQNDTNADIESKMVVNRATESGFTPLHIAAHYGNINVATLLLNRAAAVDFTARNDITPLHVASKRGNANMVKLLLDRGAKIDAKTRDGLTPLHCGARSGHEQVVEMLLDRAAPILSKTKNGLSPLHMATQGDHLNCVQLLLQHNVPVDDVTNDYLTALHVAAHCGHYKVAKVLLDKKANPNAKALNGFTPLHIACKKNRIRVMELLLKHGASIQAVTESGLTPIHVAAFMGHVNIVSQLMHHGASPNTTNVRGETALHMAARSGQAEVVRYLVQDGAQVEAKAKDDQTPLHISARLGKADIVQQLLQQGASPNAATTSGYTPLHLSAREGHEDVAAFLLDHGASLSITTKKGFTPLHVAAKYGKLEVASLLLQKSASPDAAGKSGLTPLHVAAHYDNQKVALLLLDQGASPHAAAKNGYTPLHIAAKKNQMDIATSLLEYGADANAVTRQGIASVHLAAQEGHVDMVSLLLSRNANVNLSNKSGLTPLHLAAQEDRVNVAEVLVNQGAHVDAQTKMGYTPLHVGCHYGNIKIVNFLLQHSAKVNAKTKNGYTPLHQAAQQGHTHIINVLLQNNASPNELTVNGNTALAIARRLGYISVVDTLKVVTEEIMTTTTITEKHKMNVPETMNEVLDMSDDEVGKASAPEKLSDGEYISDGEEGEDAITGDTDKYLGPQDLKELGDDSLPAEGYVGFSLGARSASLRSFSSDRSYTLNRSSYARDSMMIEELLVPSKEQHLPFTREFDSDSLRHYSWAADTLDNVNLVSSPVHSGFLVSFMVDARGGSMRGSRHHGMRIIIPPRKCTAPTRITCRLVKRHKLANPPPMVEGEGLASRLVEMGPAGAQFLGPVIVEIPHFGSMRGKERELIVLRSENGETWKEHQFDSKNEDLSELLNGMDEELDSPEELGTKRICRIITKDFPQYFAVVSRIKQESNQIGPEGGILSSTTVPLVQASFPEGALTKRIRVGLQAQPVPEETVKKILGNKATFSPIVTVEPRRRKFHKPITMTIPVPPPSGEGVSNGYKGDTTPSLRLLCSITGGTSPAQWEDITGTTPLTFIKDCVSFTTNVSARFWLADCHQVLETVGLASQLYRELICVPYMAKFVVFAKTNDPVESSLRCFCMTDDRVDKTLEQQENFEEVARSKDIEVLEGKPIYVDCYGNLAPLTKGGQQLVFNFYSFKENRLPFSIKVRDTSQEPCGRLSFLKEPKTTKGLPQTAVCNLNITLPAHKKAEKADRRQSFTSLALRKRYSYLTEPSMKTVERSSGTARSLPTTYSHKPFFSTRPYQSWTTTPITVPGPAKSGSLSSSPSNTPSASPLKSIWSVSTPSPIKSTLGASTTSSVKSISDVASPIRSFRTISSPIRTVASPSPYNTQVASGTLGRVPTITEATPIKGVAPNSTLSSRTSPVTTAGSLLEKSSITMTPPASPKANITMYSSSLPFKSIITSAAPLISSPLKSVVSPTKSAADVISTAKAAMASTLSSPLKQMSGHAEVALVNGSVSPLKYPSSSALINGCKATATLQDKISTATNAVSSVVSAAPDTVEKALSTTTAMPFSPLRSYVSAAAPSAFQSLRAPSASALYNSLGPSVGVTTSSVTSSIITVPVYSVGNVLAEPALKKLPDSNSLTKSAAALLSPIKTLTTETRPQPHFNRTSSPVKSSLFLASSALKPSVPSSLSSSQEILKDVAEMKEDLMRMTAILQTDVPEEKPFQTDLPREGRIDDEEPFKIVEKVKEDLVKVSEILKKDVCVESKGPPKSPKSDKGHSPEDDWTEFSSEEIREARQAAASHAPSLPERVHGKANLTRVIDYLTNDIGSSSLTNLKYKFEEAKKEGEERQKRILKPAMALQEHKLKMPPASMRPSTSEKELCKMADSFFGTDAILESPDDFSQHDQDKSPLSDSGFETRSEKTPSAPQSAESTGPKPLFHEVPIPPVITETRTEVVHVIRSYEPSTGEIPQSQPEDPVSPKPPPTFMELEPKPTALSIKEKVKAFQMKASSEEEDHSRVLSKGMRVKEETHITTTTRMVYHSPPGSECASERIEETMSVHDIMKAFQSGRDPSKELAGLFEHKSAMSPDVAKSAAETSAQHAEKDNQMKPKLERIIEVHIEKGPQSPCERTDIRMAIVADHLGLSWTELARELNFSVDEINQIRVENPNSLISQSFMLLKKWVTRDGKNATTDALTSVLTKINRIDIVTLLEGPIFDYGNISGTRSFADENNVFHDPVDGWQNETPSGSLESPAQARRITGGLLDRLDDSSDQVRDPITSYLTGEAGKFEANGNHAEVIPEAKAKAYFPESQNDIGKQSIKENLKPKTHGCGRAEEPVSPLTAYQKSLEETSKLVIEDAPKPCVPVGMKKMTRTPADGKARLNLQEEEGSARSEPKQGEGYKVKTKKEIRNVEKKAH"}, "[2]": {"target": "AnkB exZZU T1324D (human)"}, "[3]": {"target": "AnkB exZZU I964Q (human)"}, "[4]": {"target": "AnkB exZZU F968A (human)"}, "[5]": {"target": "AnkB exZZU R1029E (human)"}, "[6]": {"target": "AnkB ZU5N-ZU5C-UPA-DD tandem (ZZUD, aa 966-1535) (human)"}, "[7]": {"target": "AnkB exZZU (extension-ZU5N-ZU5C-UPA, aa 951-1443) (human)"}}}
{"substance": "β2-spectrin R13-16 (from UniProt Q62261 1-2363) (domain or fragment)", "values": [{"measurement": "fold stronger binding than AnkG ZZUD without the extension", "setting": "[1]", "value": "> 10", "unit": "fold"}]}
{"substance": "β4-spectrin spectrin repeats 13-15 (R13-15) (domain or fragment)", "values": [{"measurement": "fold decrease of binding against wild-type AnkB exZZU", "setting": "[2]", "value": 5, "unit": "fold"}]}
{"substance": "β2-spectrin spectrin repeats 13-15 (R13-15) (domain or fragment)", "values": [{"measurement": "fold decrease of binding against wild-type AnkB exZZU", "setting": "[3]", "value": 4, "unit": "fold"}, {"measurement": "fold decrease of binding against wild-type AnkB exZZU", "setting": "[4]", "value": "> 10", "unit": "fold"}, {"measurement": "fold decrease of binding against wild-type AnkB exZZU", "setting": "[5]", "value": 5, "unit": "fold"}, {"measurement": "Kd", "setting": "[6]", "value": 4.9, "unit": "µM"}, {"measurement": "Kd", "setting": "[7]", "value": 0.2, "unit": "µM"}]}
